Laboratory results published in US20060045881A1 (University of Texas, published 2006).
One block for each binder: values may come before it.

Experiments:
[1] = molecular target: T1, HLA-A2.1 heavy chain with I125-labeled beta2-microglobulin (heterotrimer complex assay) (human, I125-labeled); assay: dissociation of I125-labeled beta2-microglobulin from heavy chain/peptide/beta2m complex, HPLC gel filtration
T1 construct: Cell-free assay; also called heterotrimer complex of the HLA-A2.1 heavy chain, peptide, and beta2-microglobulin

[2] = molecular target: T2, HLA-A2.1 (HLA-A*0201) on the surface of T2 cells (human)
T2 construct: also called surface HLA-A2.1 on T2

- T1/2 (binding half-life) [1]: 24.3 h
B1: PR1 peptide (proteinase 3 aa 169-177, VLQELNVTV) (peptide)
peptide: VLQELNVTV
notes: Synthetic peptide, minimum 95% purity

- FI CCNE2144-152/FI PR1 (fluorescence ratio against PR1) [2]: 1.19 ratio
B2: CCNE2 144-152 (cyclin E2 derived nonameric peptide) (peptide)
peptide: ILLDWLLEV
notes: also called cyclin E2 peptide

- T1/2 (binding half-life) [1]: 2.33 h
B3: PR2 peptide (proteinase 3 derived, RLFPDFFTRV as printed in Table 4) (peptide)
peptide: RLFPDFFTRV
